Tests used:
[1] = target: ProTα E56C/D110C labeled with Alexa Fluor 488/594 (human); experiment: single-molecule FRET; freely diffusing molecules; 50 pM labeled ProTα titrated with unlabeled H1; TBS, 180 mM ionic strength
[2] = target: Avi-ProTα E56C/D110C, biotinylated, labeled with Cy3B/LD650 (human); experiment: single-molecule FRET; freely diffusing molecules; 50 pM labeled ProTα titrated with unlabeled H1; TBS, 200 mM ionic strength
[3] = target: ProTα E55C/D109C labeled with Alexa Fluor 488/594 (human); experiment: as above
[4] = target: ProTα E56C/D110C labeled with Alexa Fluor 488/594 (human); experiment: single-molecule FRET; freely diffusing molecules; 50 pM labeled ProTα titrated with unlabeled H1; TBS, 240 mM ionic strength
[5] = target: ProTα E56C/D110C labeled with Alexa Fluor 488/594 (human); experiment: single-molecule FRET; freely diffusing molecules; 50 pM labeled ProTα titrated with unlabeled H1; TBS, 290 mM ionic strength
[6] = target: ProTα E56C/D110C labeled with Alexa Fluor 488/594 (human); experiment: single-molecule FRET; freely diffusing molecules; 50 pM labeled ProTα titrated with unlabeled H1; TBS, 330 mM ionic strength
[7] = target: ProTα E56C/D110C labeled with Alexa Fluor 488/594 (human); experiment: single-molecule FRET; freely diffusing molecules; 50 pM labeled ProTα titrated with unlabeled H1; TBS, 340 mM ionic strength
[8] = target: ProTα E56C/D110C labeled with Alexa Fluor 488/594 (human); experiment: stopped-flow fluorescence; 2 nM labeled ProTα mixed with different concentrations of H1; TBS, 165 mM ionic strength; fit with kex = kon cH + KD kon
[9] = target: 1:1 complex of ProTα E56C/D110C Alexa488/594 and unlabeled H1 (human); experiment: single-molecule FRET; rate coefficient of PH + H ⇌ PHH at 200 mM ionic strength; KD extrapolated from lower ionic strengths, kon^PHH assumed equal to kon^PPH
[10] = target: 1:1 complex of ProTα E56C/D110C Alexa488/594 and unlabeled H1 (human); experiment: single-molecule FRET; freely diffusing molecules; unlabeled H1 titrated to 50 pM labeled ProTα fully saturated with unlabeled H1 (PH + H ⇌ PHH); TBS, 8 mM ionic strength
[11] = target: 1:1 complex of ProTα E56C/D110C Alexa488/594 and unlabeled H1 (human); experiment: single-molecule FRET; freely diffusing molecules; unlabeled H1 titrated to 50 pM labeled ProTα fully saturated with unlabeled H1 (PH + H ⇌ PHH); TBS, 13 mM ionic strength
[12] = target: 1:1 complex of ProTα E56C/D110C Alexa488/594 and unlabeled H1 (human); experiment: single-molecule FRET; freely diffusing molecules; unlabeled H1 titrated to 50 pM labeled ProTα fully saturated with unlabeled H1 (PH + H ⇌ PHH); TBS, 18 mM ionic strength
[13] = target: 1:1 complex of ProTα E56C/D110C Alexa488/594 and unlabeled H1 (human); experiment: single-molecule FRET; freely diffusing molecules; unlabeled H1 titrated to 50 pM labeled ProTα fully saturated with unlabeled H1 (PH + H ⇌ PHH); TBS, 23 mM ionic strength
[14] = target: 1:1 complex of ProTα E56C/D110C Alexa488/594 and unlabeled H1 (human); experiment: single-molecule FRET; freely diffusing molecules; unlabeled H1 titrated to 50 pM labeled ProTα fully saturated with unlabeled H1 (PH + H ⇌ PHH); TBS, 33 mM ionic strength
[15] = target: 1:1 complex of ProTα E56C/D110C Alexa488/594 and unlabeled H1 (human); experiment: single-molecule FRET; freely diffusing molecules; unlabeled H1 titrated to 50 pM labeled ProTα fully saturated with unlabeled H1 (PH + H ⇌ PHH); TBS, 43 mM ionic strength
[16] = target: 1:1 complex of ProTα E56C/D110C Alexa488/594 and unlabeled H1 (human); experiment: single-molecule FRET; freely diffusing molecules; unlabeled H1 titrated to 50 pM labeled ProTα fully saturated with unlabeled H1 (PH + H ⇌ PHH); TBS, 58 mM ionic strength
[17] = target: 1:1 complex of ProTα E56C/D110C Alexa488/594 and unlabeled H1 (human); experiment: single-molecule FRET; freely diffusing molecules; unlabeled H1 titrated to 50 pM labeled ProTα fully saturated with unlabeled H1 (PH + H ⇌ PHH); TBS, 83 mM ionic strength
[18] = target: Avi-ProTα E56C/D110C, biotinylated, labeled with Cy3B/LD650 (human); experiment: single-molecule FRET; biotinylated Avi-ProTα immobilised on a PEG/neutravidin surface, unlabeled H1 in solution; two-state model of time traces; TBS in D2O, 230 mM ionic strength
[19] = target: Avi-ProTα E56C/D110C, biotinylated, labeled with Cy3B/LD650 (human); experiment: single-molecule FRET; biotinylated Avi-ProTα immobilised on a PEG/neutravidin surface, unlabeled H1 in solution; two-state model of time traces; TBS in D2O, 275 mM ionic strength
[20] = target: Avi-ProTα E56C/D110C, biotinylated, labeled with Cy3B/LD650 (human); experiment: single-molecule FRET; biotinylated Avi-ProTα immobilised on a PEG/neutravidin surface, unlabeled H1 in solution; two-state model of time traces; TBS in D2O, 230 mM ionic strength; remark: listed apart in the source
[21] = target: Avi-ProTα E56C/D110C, biotinylated, labeled with Cy3B/LD650 (human); experiment: single-molecule FRET; biotinylated Avi-ProTα immobilised on a PEG/neutravidin surface, unlabeled H1 in solution; two-state model of time traces; TBS in D2O, 275 mM ionic strength; remark: listed apart in the source
[22] = target: ProTα E55C/D109C labeled with Alexa Fluor 488/594 (human); experiment: single-molecule FRET; freely diffusing molecules; labeled protein titrated with the unlabeled partner (labeled ProTα with unlabeled H1, labeled H1 with unlabeled ProTα); TBS, 208 mM ionic strength
[23] = target: ProTα E56C/D110C labeled with Alexa Fluor 488/594 (human); experiment: as above
[24] = target: ProTα E56C/D110C labeled with Atto 550/647N (human); experiment: as above
[25] = target: ProTα E56C/D110C labeled with Cy3B/Abberior STAR635 (human); experiment: as above
[26] = target: ProTα S1C/D109C labeled with Alexa Fluor 488/594 (human); experiment: as above
[27] = target: ProTα S1C/D110C labeled with Alexa Fluor 488/594 (human); experiment: as above
[28] = target: ProTα S1C/E55C labeled with Alexa Fluor 488/594 (human); experiment: as above
[29] = target: ProTα E56C/D110C labeled with Alexa Fluor 488/594 (human); experiment: single-molecule FRET; freely diffusing molecules; 50 pM labeled ProTα titrated with unlabeled H1; TBS (10 mM Tris, 0.1 mM EDTA, KCl), 140 mM β-mercaptoethanol, 0.01% Tween 20; 165 mM ionic strength
[30] = target: recombinant wild-type human histone H1.0 (unlabeled) (human); experiment: single-molecule FRET; competition titration, freely diffusing molecules; constant 50 pM labeled ProTα and unlabeled H1 (1 to 50 nM), unlabeled ProTα varied; TBS, 165 mM ionic strength
recombinant wild-type human histone H1.0 (unlabeled) (human), sequence (P07305 2-194): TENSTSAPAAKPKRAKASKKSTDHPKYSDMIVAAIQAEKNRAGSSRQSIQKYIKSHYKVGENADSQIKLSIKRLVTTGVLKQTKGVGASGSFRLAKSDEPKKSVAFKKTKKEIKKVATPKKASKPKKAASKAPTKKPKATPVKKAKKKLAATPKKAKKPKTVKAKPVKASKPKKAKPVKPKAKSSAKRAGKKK

[31] = target: recombinant wild-type human histone H1.0 (unlabeled) (human); experiment: single-molecule FRET; competition titration, freely diffusing molecules; constant 50 pM labeled ProTα and unlabeled H1 (1 to 50 nM), unlabeled ProTα varied; TBS, 230 mM ionic strength
[32] = target: H1 V104C/G194C labeled with Alexa Fluor 488/594 (human); experiment: single-molecule FRET; freely diffusing molecules; labeled protein titrated with the unlabeled partner (labeled ProTα with unlabeled H1, labeled H1 with unlabeled ProTα); TBS, 208 mM ionic strength

recombinant wild-type human histone H1.0 (unlabeled) (natural protein), sequence (P07305 2-194): as above

In the case of “recombinant wild-type human histone H1.0 (unlabeled) (natural protein)”, the Kd [1] is reported as 0.037 nM, the Kd [2] is reported as 1.12 nM and the Kd [3] is reported as 0.51 nM. The Kd [4] was 25 nM, the Kd [5] was 230 nM and the Kd [6] was 1400 nM. It also gave a Kd [7] of 4000 nM, a koff [8] of 0.006 s⁻¹ and a kon [8] of 3.5e+09 M⁻¹ s⁻¹. It also gave a koff [9] of 6000 s⁻¹, a Kd [10] of 200 nM and a Kd [11] of 540 nM. The Kd [12] was 710 nM, the Kd [13] was 540 nM and the Kd [14] was 1310 nM. For the same substance, the Kd [15] was 1800 nM, the Kd [16] was 2800 nM and the Kd [17] was 4100 nM. For the same substance, the kon [18] was 1.4e+09 M⁻¹ s⁻¹, the kon [19] was 1.01e+09 M⁻¹ s⁻¹ and the Kd [20] was 2 nM. The koff [20] was 2.8 s⁻¹, the kon [20] was 3.1e+09 M⁻¹ s⁻¹ and the Kd [21] was 59 nM. The koff [21] was 59 s⁻¹, the kon [21] was 3.1e+09 M⁻¹ s⁻¹ and the Kd [22] was 1.3 nM. The Kd [23] was 1 nM, the Kd [24] was 3.1 nM and the Kd [25] was 1 nM. It also gave a Kd [26] of 2.3 nM, a Kd [27] of 2 nM and a Kd [28] of 1.3 nM. The Kd [29] was 0.0021 nM.
Work on “ProTα (unlabeled & NMR) (natural protein)” yielded a Kd [30] of 0.0058 nM, a Kd [31] of 6.5 nM and a Kd [32] of 3.5 nM.

Source: article PMC7661507
